Test results as given in US20240209086A1 (PETMEDIX, published 2024).
Where a chain is given by its changes, count along the chain named.

B1: PMX172 in bispecific format (canine CD3 arm PMX172 x Rituximab arm, human IgG4PE knob-in-hole) (bispecific antibody)
heavy 1: EVQLVESGGDLVKPGGSLRLSCVASGFTFSSYHMSWVRQAPGKGLQWVAYSNSGGSRTSYADAVKGRFTISRDNAKNTLYLQMNSLRAEDTAVYYCASEGGGGRYGYKDYGMDYWGHGTSLFVSSASTKGPSVFPLAPCSRSTSESTAALGCLVKDYFPEPVTVSWNSGALTSGVHTFPAVLQSSGLYSLSSVVTVPSSSLGTKTYTCNVDHKPSNTKVDKRVESKYGPPCPPCPAPEFEGGPSVFLFPPKPKDTLMISRTPEVTCVVVDVSQEDPEVQFNWYVDGVEVHNAKTKPREEQFNSTYRVVSVLTVLHQDWLNGKEYKCKVSNKGLPSSIEKTISKAKGQPREPQVYTLPPSQCEMTKNQVSLSCAVKGFYPSDIAVEWESNGQPENNYKTTPPVLDSDGSFFLVSRLTVDKSRWQEGNVFSCSVMHEALHNRFTQKSLSLSLGK
light 1: SYVLTQLPSKNVTLKQPAHITCGGDNIGSKSVHWYQQKLGQAPVLIIYYDSSRPTGIPERFSGANSGNTATLTISGALAEDEADYYCQVWDSSAKAWVFGEGTQLTVLRTVAAPSVFIFPPSDEQLKSGTASVVCLLNNFYPREAKVQWKVDNALQSGNSQESVTEQDSKDSTYSLSSTLTLSKADYEKHKVYACEVTHQGLSSPVTKSFNRGEC
heavy 2: not shown
light 2: QIVLSQSPAILSASPGEKVTMTCRASSSVSYIHWFQQKPGSSPKPWIYATSNLASGVPVRFSGSGSGTSYSLTISRVEAEDAATYYCQQWTSNPPTFGGGTKLEIKRTVAAPSVFIFPPSDEQLKSGTASVVCLLNNFYPREAKVQWKVDNALQSGNSQESVTEQDSKDSTYSLSSTLTLSKADYEKHKVYACEVTHQGLSSPVTKSFNRGEC
B2: PMX189 in bispecific format (canine CD3 arm PMX189 x Rituximab arm, human IgG4PE knob-in-hole) (bispecific antibody)
heavy 1: ELTLQESGPGLVKPSQTLSLTCVVSGGSVTNNYYWNWIRQRPGRGLEWMGYWTGSTKYNPAFQGRISITADTANNQFSLHLNSMSSEDTAVYYCARDRDRRVPHAYGYWGQGTLVTVSSASTKGPSVFPLAPCSRSTSESTAALGCLVKDYFPEPVTVSWNSGALTSGVHTFPAVLQSSGLYSLSSVVTVPSSSLGTKTYTCNVDHKPSNTKVDKRVESKYGPPCPPCPAPEFEGGPSVFLFPPKPKDTLMISRTPEVTCVVVDVSQEDPEVQFNWYVDGVEVHNAKTKPREEQFNSTYRVVSVLTVLHQDWLNGKEYKCKVSNKGLPSSIEKTISKAKGQPREPQVYTLPPSQCEMTKNQVSLSCAVKGFYPSDIAVEWESNGQPENNYKTTPPVLDSDGSFFLVSRLTVDKSRWQEGNVFSCSVMHEALHNRFTQKSLSLSLGK
light 1: B1 light 1 with W97S, E101G, Q104H
heavy 2: not shown
light 2: B1 light 2
B3: PMX191 in bispecific format (canine CD3 arm PMX191 x Rituximab arm, human IgG4PE knob-in-hole) (bispecific antibody)
heavy 1: EVQLVESGGDLVKPAGSLRLSCVASGFTFSDYSMSWVRQGPEKGLQLVAGMNSDGSTTYYTDAVRGRFTISRDNAKNTMYLQMNSLRDEDTAIYYCAKGAAAPDYWGQGTLVTVSSASTKGPSVFPLAPCSRSTSESTAALGCLVKDYFPEPVTVSWNSGALTSGVHTFPAVLQSSGLYSLSSVVTVPSSSLGTKTYTCNVDHKPSNTKVDKRVESKYGPPCPPCPAPEFEGGPSVFLFPPKPKDTLMISRTPEVTCVVVDVSQEDPEVQFNWYVDGVEVHNAKTKPREEQFNSTYRVVSVLTVLHQDWLNGKEYKCKVSNKGLPSSIEKTISKAKGQPREPQVYTLPPSQCEMTKNQVSLSCAVKGFYPSDIAVEWESNGQPENNYKTTPPVLDSDGSFFLVSRLTVDKSRWQEGNVFSCSVMHEALHNRFTQKSLSLSLGK
light 1: SYELTQPPSVNVTLRETAHITCGGDRIGSKYVQWIQQIPGQAPVVIIYKDNNRPTGIPERFSGANSGNTATLTISGALAEDEADYYCQVGDNYTWVFGEGTQLTVLRTVAAPSVFIFPPSDEQLKSGTASVVCLLNNFYPREAKVQWKVDNALQSGNSQESVTEQDSKDSTYSLSSTLTLSKADYEKHKVYACEVTHQGLSSPVTKSFNRGEC
heavy 2: not shown
light 2: B1 light 2
B4: PMX185 in bispecific format (canine CD3 arm PMX185 x Rituximab arm, human IgG4PE knob-in-hole) (bispecific antibody)
heavy 1: EVQLVESGGDLVKPGGSLRLSCVASGFTFSSYHMSWVRQAPGKGLQWVASINSGGSRTSYVDAVKGRFTISRDNAKKTLYLQMNSLRAEDTAVYYCASGRTGPKLGLGDYGMDSWGHGTSLFVSSASTKGPSVFPLAPCSRSTSESTAALGCLVKDYFPEPVTVSWNSGALTSGVHTFPAVLQSSGLYSLSSVVTVPSSSLGTKTYTCNVDHKPSNTKVDKRVESKYGPPCPPCPAPEFEGGPSVFLFPPKPKDTLMISRTPEVTCVVVDVSQEDPEVQFNWYVDGVEVHNAKTKPREEQFNSTYRVVSVLTVLHQDWLNGKEYKCKVSNKGLPSSIEKTISKAKGQPREPQVYTLPPSQCEMTKNQVSLSCAVKGFYPSDIAVEWESNGQPENNYKTTPPVLDSDGSFFLVSRLTVDKSRWQEGNVFSCSVMHEALHNRFTQKSLSLSLGK
light 1: B1 light 1 with L45M
heavy 2: not shown
light 2: B1 light 2
B5: PMX192 in bispecific format (canine CD3 arm PMX192 x Rituximab arm, human IgG4PE knob-in-hole) (bispecific antibody)
heavy 1: EVQLVESGGDLVKPAGSLRLSCVASGFTFSDYSMSWVRQAPEKGLQLVAGINGDGSTTYYTDAVKGRFTISRDNAKNTVYLQMNSLRAEDTAMYYCAKGAGTGDFWGQGTLVTVSSASTKGPSVFPLAPCSRSTSESTAALGCLVKDYFPEPVTVSWNSGALTSGVHTFPAVLQSSGLYSLSSVVTVPSSSLGTKTYTCNVDHKPSNTKVDKRVESKYGPPCPPCPAPEFEGGPSVFLFPPKPKDTLMISRTPEVTCVVVDVSQEDPEVQFNWYVDGVEVHNAKTKPREEQFNSTYRVVSVLTVLHQDWLNGKEYKCKVSNKGLPSSIEKTISKAKGQPREPQVYTLPPSQCEMTKNQVSLSCAVKGFYPSDIAVEWESNGQPENNYKTTPPVLDSDGSFFLVSRLTVDKSRWQEGNVFSCSVMHEALHNRFTQKSLSLSLGK
light 1: B3 light 1 with D25A, R26S, S29R, N51S, N92S, Y93G, T94A
heavy 2: not shown
light 2: B1 light 2
B6: PMX184 in bispecific format (canine CD3 arm PMX184 x Rituximab arm, human IgG4PE knob-in-hole) (bispecific antibody)
heavy 1: ELTLQESGPGLVKPSQTLSLTCGVSGGSVTRSHYWNWVRQRPGRGLEWMGYWTGSTNYNPAFQGRISITADTAKNQFSLQLRSMTTEDTAVYFCARETTIPTFFFDYWGQGTLVTVSSASTKGPSVFPLAPCSRSTSESTAALGCLVKDYFPEPVTVSWNSGALTSGVHTFPAVLQSSGLYSLSSVVTVPSSSLGTKTYTCNVDHKPSNTKVDKRVESKYGPPCPPCPAPEFEGGPSVFLFPPKPKDTLMISRTPEVTCVVVDVSQEDPEVQFNWYVDGVEVHNAKTKPREEQFNSTYRVVSVLTVLHQDWLNGKEYKCKVSNKGLPSSIEKTISKAKGQPREPQVYTLPPSQCEMTKNQVSLSCAVKGFYPSDIAVEWESNGQPENNYKTTPPVLDSDGSFFLVSRLTVDKSRWQEGNVFSCSVMHEALHNRFTQKSLSLSLGK
light 1: B1 light 1 with S93G
heavy 2: not shown
light 2: B1 light 2
B7: PMX190 in bispecific format (canine CD3 arm PMX190 x Rituximab arm, human IgG4PE knob-in-hole) (bispecific antibody)
heavy 1: EVQLVESGGDLVKPGGSLRLSCVASGFTFSSYQMSWVRQAPGKGLQWVAYISSGGGRTTYADAVRGRLTISRDNAKNTLYLQMNSLRAEDAAVYYCAREGGGEIYGYKDYGMDYWGHGTSLFVSSASTKGPSVFPLAPCSRSTSESTAALGCLVKDYFPEPVTVSWNSGALTSGVHTFPAVLQSSGLYSLSSVVTVPSSSLGTKTYTCNVDHKPSNTKVDKRVESKYGPPCPPCPAPEFEGGPSVFLFPPKPKDTLMISRTPEVTCVVVDVSQEDPEVQFNWYVDGVEVHNAKTKPREEQFNSTYRVVSVLTVLHQDWLNGKEYKCKVSNKGLPSSIEKTISKAKGQPREPQVYTLPPSQCEMTKNQVSLSCAVKGFYPSDIAVEWESNGQPENNYKTTPPVLDSDGSFFLVSRLTVDKSRWQEGNVFSCSVMHEALHNRFTQKSLSLSLGK
light 1: B1 light 1
heavy 2: not shown
light 2: B1 light 2
B8: PMX169 in bispecific format (canine CD3 arm PMX169 x Rituximab arm, human IgG4PE knob-in-hole) (bispecific antibody)
heavy 1: B1 heavy 1 with L4V, A24T, T28A, S30N, S31N, S51I, T58I, G103E, R104I, Y107F
light 1: B1 light 1
heavy 2: not shown
light 2: B1 light 2
B9: PMX170 in bispecific format (canine CD3 arm PMX170 x Rituximab arm, human IgG4PE knob-in-hole) (bispecific antibody)
heavy 1: B1 heavy 1 with N84S, Y107F
light 1: B1 light 1
heavy 2: not shown
light 2: B1 light 2
B10: PMX171 in bispecific format (canine CD3 arm PMX171 x Rituximab arm, human IgG4PE knob-in-hole) (bispecific antibody)
heavy 1: B1 heavy 1 with V23E, S51I, S53N, R57G, Y95F, G103K
light 1: B1 light 1
heavy 2: not shown
light 2: B1 light 2
B11: PMX186 in bispecific format (canine CD3 arm PMX186 x Rituximab arm, human IgG4PE knob-in-hole) (bispecific antibody)
heavy 1: B1 heavy 1 with Q3K, F27V, S31R, H33Y, S51I, R57T, G101V, G103E, R104I, Y110F
light 1: B1 light 1 with S52R
heavy 2: not shown
light 2: B1 light 2

Each binder was assayed against canine CD3 on canine T cells (canine PBMC) (canine, UniProt P27597 22-202) (assay: cell-based or functional assay).
canine CD3 on canine T cells (canine PBMC), sequence (P27597 22-202 limits assumed, chain 1 of 3): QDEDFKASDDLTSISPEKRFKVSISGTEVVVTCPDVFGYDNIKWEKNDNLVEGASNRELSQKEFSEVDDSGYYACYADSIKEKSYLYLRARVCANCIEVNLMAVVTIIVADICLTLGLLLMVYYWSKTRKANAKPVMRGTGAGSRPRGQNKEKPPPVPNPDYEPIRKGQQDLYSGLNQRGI
canine CD3 on canine T cells (canine PBMC), sequence (chain, as listed by the source limits assumed, chain 2 of 3): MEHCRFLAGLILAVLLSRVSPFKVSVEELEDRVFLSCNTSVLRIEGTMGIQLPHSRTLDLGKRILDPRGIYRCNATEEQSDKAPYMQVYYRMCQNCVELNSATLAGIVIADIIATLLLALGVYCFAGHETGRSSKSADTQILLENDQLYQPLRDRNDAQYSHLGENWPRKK
canine CD3 on canine T cells (canine PBMC), sequence (chain, as listed by the source limits assumed, chain 3 of 3): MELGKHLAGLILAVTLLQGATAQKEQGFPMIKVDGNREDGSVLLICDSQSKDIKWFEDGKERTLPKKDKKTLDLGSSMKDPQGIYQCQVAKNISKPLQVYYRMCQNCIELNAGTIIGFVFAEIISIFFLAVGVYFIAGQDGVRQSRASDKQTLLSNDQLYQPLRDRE
For B1, the “EC50 (M) of killing potency, bispecific killing of hCD20+GFP MDCK II cells by canine PBMC” value (from here on “EC50 (M) of killing potency”) was 4.66e-09 M.
For B2, the “EC50 (M) of killing potency” value was 1.1e-08 M.
In the case of B3, the “EC50 (M) of killing potency” value is reported as 9.44e-09 M.
For B4, the “EC50 (M) of killing potency” value was 4.79e-09 M.
In the case of B5, the “EC50 (M) of killing potency” value is reported as 3.21e-08 M.
B6 was tested, and the “EC50 (M) of killing potency” value was 2.55e-08 M.
B7 was tested, and the “EC50 (M) of killing potency” value was 1e-08 M.
With B8 the “EC50 (M) of killing potency” value was 1.4e-08 M.
B9 was tested, and the “EC50 (M) of killing potency” value was 3.32e-09 M.
In the case of B10, the “EC50 (M) of killing potency” value is reported as 8.52e-09 M.
In the case of B11, the “EC50 (M) of killing potency” value is reported as 1.29e-08 M.

The binders below were run against T1, canine CD3εδ-Fc (heterodimer of canine CD3ε-hIgG4PE-knob and canine CD3δ-hIgG4PE-hole) (canine) (assay: SPR (Biacore 8K), CD3εδ-Fc amine-coupled to CM5 chip, multi-cycle kinetics, antibody 600-7.4 nM).
T1 construct: also called CD3εδ-Fc fusion protein; copies: 1 + 1
T1 sequence (chain, as listed by the source mutant limits assumed): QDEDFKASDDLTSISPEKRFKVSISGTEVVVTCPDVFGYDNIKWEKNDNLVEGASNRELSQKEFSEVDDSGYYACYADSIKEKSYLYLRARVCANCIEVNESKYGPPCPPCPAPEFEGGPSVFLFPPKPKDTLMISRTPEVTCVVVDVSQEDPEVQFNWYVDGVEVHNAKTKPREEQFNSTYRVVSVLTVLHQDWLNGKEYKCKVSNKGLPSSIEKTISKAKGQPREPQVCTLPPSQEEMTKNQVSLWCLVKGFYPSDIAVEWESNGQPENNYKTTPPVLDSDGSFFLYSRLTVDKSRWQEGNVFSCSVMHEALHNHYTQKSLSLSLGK
Experimental: Binding affinity of shortlisted candidates, described in Example 3, were assessed using Biacore 8K (Cytiva). Briefly, a CM5 Sensor Chip (Cytiva) was docked onto a Biacore 8K, equilibrated for 30′ at RT and then Running Buffer (10 mM HEPES pH6 150 mM NaCl 3 mM EDTA and 0.005% Tween20) was applied to the SPR chip surface. Canine CD3εδ-Fc was diluted into 10 mM acetate buffer pH4.5 and immobilised using standard amine coupling reaction. Antibodies dilutions were prepared by diluting the shortlisted candidates from 600 nM to 7.4 nM (5 concentrations with 1:3 dilutions) in running buffer and kinetics was assessed using multi-cycle kinetics method (120 sec association-300 sec dissociation). Kinetics and/or Affinity quantification was performed using Biacore Insight following standard analyses methods.
For B1, the Kd was 447 nM.
B2 gave a Kd of 177 nM.
B3 was tested, and the Kd was 62.1 nM.
B4 gave a Kd of 72.1 nM.
For B5, the Kd was 74.4 nM.
Binder B6 has a Kd of 99.8 nM.
With B7 the Kd was 999 nM.
B8 was tested, and the Kd was 854 nM.
B9 gave a Kd of 304 nM.
B10 gave a Kd of 517 nM.
Work on B11 yielded a Kd of 513 nM.
